Here are results for one protein from publication PMC5095700.

Substrate in the series: N[C@@H]1[C@@H](O)[C@H](O)[C@@H](CO)O[C@H]1O
Description: purified protein. The series is classed as biochemical, Clostridium acetobutylicum. Conditions: CoA C-terminal domain active site, Trp […], Glu […], Asp […].

B1: Glucosamine/glucosaminide N-acetyltransferase (GlmA) (Clostridium acetobutylicum ATCC 824) (protein)
chain: MEIKETYDFSSIVDLWNKNIGTVYPMNLELFKQNYINDRQRKKIMGAFNGEILIGFVIYKQWTYKSGSLKPNHKIGYINSIIVDINFRHQGIGTKLLDAAEEELINSGVKILRCGSDTYHFFPGIPLECLPSEEFFLVRGYKMQDYFYDLIGDVSKVDFKKPSIKDGFKVNVMKPEDRKGLFEFLEKSFSGRWLEEFIEFFQVGMKERDIVLIKYKTSVIGFSHIYDNKSSFIGPPIYWKALLGHNYGGLGPIGIDKTYRKQGLGRLLLYESLQILKKREVKKMVIDWTEKDIINFYGRFNFMPWKAYRKATKEVKDGKG
As for B1, the Km turned out to be 210 ± 20 µM.

A word on the Km: it is the substrate concentration at which the rate is half of its maximum.
